Values quoted from earlier work as cited in article PMC12207913.
pKd: −log10 of the molar value.

Biological target: E6AP (Homo sapiens) (UniProt Q05086)
Experiment: SPR

UniProt Q05086, sequence (Q05086 whole entry): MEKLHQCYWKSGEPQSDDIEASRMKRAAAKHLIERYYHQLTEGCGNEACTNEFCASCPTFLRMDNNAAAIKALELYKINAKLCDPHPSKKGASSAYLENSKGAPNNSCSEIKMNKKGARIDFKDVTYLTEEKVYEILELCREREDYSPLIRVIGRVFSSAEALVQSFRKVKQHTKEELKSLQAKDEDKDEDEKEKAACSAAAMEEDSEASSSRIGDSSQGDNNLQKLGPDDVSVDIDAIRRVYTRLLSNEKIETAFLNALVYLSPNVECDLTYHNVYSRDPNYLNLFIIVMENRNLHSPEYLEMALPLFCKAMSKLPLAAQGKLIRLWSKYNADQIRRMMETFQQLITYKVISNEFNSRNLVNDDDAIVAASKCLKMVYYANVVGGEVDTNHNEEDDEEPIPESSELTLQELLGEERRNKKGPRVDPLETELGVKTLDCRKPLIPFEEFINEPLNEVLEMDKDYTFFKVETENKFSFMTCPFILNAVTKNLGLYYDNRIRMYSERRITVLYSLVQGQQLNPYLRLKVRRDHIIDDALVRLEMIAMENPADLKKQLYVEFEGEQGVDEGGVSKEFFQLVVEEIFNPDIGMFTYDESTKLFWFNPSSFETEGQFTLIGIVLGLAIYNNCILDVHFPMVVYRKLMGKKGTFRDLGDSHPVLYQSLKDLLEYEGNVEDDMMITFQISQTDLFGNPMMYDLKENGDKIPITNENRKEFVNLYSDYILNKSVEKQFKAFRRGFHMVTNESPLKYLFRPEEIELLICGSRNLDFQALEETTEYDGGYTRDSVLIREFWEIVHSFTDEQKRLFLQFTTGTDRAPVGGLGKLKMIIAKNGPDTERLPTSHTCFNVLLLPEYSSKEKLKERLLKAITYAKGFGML

HPV16 E6 (from UniProt P03126)
pKd: 9.84
